From the RNAGym collection of RNA variant scans (doi:10.1101/gr.219683.116)

B1: mRNA-splicing (parent)
chain: AGUUGCUGCUGGGAGCUCCAGCACAGUGAAAUGGACAGAAGGGCAGAGCAA

Variants of: B1
Assay: exon inclusion enrichment index; higher = more inclusion; WT1 exon 5 minigene, HEK293

Variant | exon inclusion enrichment index
G5C C6A U7C G8A U10A C24A A25C | 0.742
G5C C6A U7C G8A U10A C22U A23C | 0.0379
G5C C6A U7C G8A U10A C22U A23G | 0.114
G5C C6A U7C G8A U10A C22U A23U | 0.0622
G5C C6A U7C G8A U10A G21U | 0.0631
G5C C6A U7C G8A U10A G21A | 0.0465
G5C C6A U7C G8A U10A G21C | 0.0715
G5C C6A U7C G8A U10A C19G | 0.078
G5C C6A U7C G8A U10A C19A | 0.0348
G5C C6A U7C G8A U10A C19U | 0.0124
G5C C6A U7C G8A U10A C44U A45C | 0.252
G5C C6A U7C G8A U10A C44U A45U | 0.0623
G5C C6A U7C G8A U10A C44U A45G | 0.0445
G5C C6A U7C G8A U10A C44U | 0.0254
G5C C6A U7C G8A U10A C44G | 0.198
G5C C6A U7C G8A U10A C44A | 0.477
G5C C6A U7C G8A U10A G21A C22A | 0.0529
G5C C6A U7C G8A U10A G21A C22G | 0.156
G5C C6A U7C G8A U10A G21A C22U | 0.0694
G5C C6A U7C G8A U10A C16A | 0.0973
G5C C6A U7C G8A U10A C16U | 0.0868

Variant | exon inclusion enrichment index
G5C C6A U7C G8A U10A C16G | 0.043
G5C C6A U7C G8A U10A G11A G12A | 0.202
G5C C6A U7C G8A U10A G11A G12C | 0.495
G5C C6A U7C G8A U10A G11A G12U | 0.0692
G5C C6A U7C G8A U10A G13A A14G | 0.424
G5C C6A U7C G8A U10A G13A A14U | 0.645
G5C C6A U7C G8A U10A G13A A14C | 0.899
G5C C6A U7C G8A U10A C36A A37U | 0.0382
G5C C6A U7C G8A U10A C36A A37G | 0.0468
G5C C6A U7C G8A U10A C36A A37C | 0.146
G5C C6A U7C G8A U10A G12U G13U | 0.00142
G5C C6A U7C G8A U10A G12U G13C | 0.0217
G5C C6A U7C G8A U10A G12U G13A | 0.0173
G5C C6A U7C G8A U10A C18U C19G | 0.0165
G5C C6A U7C G8A U10A C18U C19U | 0.00236
G5C C6A U7C G8A U10A C18U C19A | 0.00114
G5C C6A U7C G8A U10A C19G A20C | 0.111
G5C C6A U7C G8A U10A C19G A20G | 0.0527
G5C C6A U7C G8A U10A C19G A20U | 0.0711
G5C C6A U7C G8A U10A C16A U17A | 0.05
G5C C6A U7C G8A U10A C16A U17C | 0.0679

Variant | exon inclusion enrichment index
G5C C6A U7C G8A U10A C16A U17G | 0.0171
G5C C6A U7C G8A U10A A47U G48U | 0.111
G5C C6A U7C G8A U10A G28U A29C | 0.0517
G5C C6A U7C G8A U10A G26U U27A | 0.0285
G5C C6A U7C G8A U10A G26U U27C | 0.613
G5C C6A U7C G8A U10A G26U U27G | 0.355
G5C C6A U7C G8A U10A C16U U17G | 0.0279
G5C C6A U7C G8A U10A C16U U17C | 0.0203
G5C C6A U7C G8A U10A C16U U17A | 0.048
G5C C6A U7C G8A U10A G15U C16G | 0.018
G5C C6A U7C G8A U10A G15U C16U | 0.0659
G5C C6A U7C G8A U10A G15U C16A | 0.0461
G5C C6A U7C G8A U10A C22A A23C | 0.364
G5C C6A U7C G8A U10A C22A A23U | 0.0806
G5C C6A U7C G8A U10A C22A A23G | 0.124
G5C C6A U7C G8A U10A C24G | 0.119
G5C C6A U7C G8A U10A C24U | 0.0213
G5C C6A U7C G8A U10A C24A | 0.105
G5C C6A U7C G8A U10A C18U | 0.054
G5C C6A U7C G8A U10A C18A | 0.0467
G5C C6A U7C G8A U10A C18G | 0.097

Variant | exon inclusion enrichment index
G5C C6A U7C G8A U10A C24U A25U | 0.151
G5C C6A U7C G8A U10A C24U A25G | 0.334
G5C C6A U7C G8A U10A C24U A25C | 0.98
G5C C6A U7C G8A U10A C16G U17A | 0.181
G5C C6A U7C G8A U10A C16G U17C | 0.0308
G5C C6A U7C G8A U10A C16G U17G | 0.00731
G5C C6A U7C G8A U10A G13C A14U | 0.136
G5C C6A U7C G8A U10A G13C A14G | 0.278
G5C C6A U7C G8A U10A G13C A14C | 0.145
G5C C6A U7C G8A U10A G28C A29U | 0.0485
G5C C6A U7C G8A U10A G28C A29G | 0.241
G5C C6A U7C G8A U10A G28C A29C | 0.0814
G5C C6A U7C G8A U10A G11U G12A | 0.0375
G5C C6A U7C G8A U10A G11U G12C | 0.543
G5C C6A U7C G8A U10A G11U G12U | 0.037
G5C C6A U7C G8A U10A C22G A23C | 0.0525
G5C C6A U7C G8A U10A C22G A23U | 0.0222
G5C C6A U7C G8A U10A C22G A23G | 0.043
G5C C6A U7C G8A U10A G28A A29G | 0.0244
G5C C6A U7C G8A U10A G28A A29C | 0.0469
G5C C6A U7C G8A U10A G28A A29U | 0.0236
